Laboratory results published in patent publication EP4647443A1 (Max-Planck-Gesellschaft zur Förderung der Wissenschaften …, dated 2025).
Residue numbers refer to the chain shown, from its start.

B1: Bm29C02 (VHH)
VHH: QVQLVESGGGLVQPGGSLRLSCTASGFTLDDWAIGWFRQAPGKEREGVSCTSSRERSSYYRDSVKGRFTISRDSTSNTVYLQMNELTLEDTAVYYCAADPQPYPCSLGQLGRYTTWGQGTQVTVSS
notes: also called anti-HlgB VHH Bm29C02
B2: Bm31G04 (VHH)
VHH: QVQLVESGGGLVQPGGSLRLSCAASGITFTFYDMGWYRQAPGKQRELVATISISSSTTYADSVKGRFTISRDNAKNTVYLQMNSLKPEDTAVYYCNAQHVDSDYLAGYDYFGQGTQVTVSS
B3: Bm31D04 (VHH)
VHH: B2 VHH with T28I, T30D, T50G, S55G, V78I, Q98H, A106R
B4: Bm31G03 (VHH)
VHH: B2 VHH with P14A, T28I, T30S, L47V, S55G, S56R, N73D, Y94I
B5: Bm31F09 (VHH)
VHH: QVQLVESGGALVQPGGSLRLSCAASGFTFDDYVMSWVRQAPGTGLEWVSSIHTASSDTYYADSVKDRFTISTDNAKNTLYLQMNSLKPEDTAVYYCAADKAPLTIATMTRDEYDYWGQGTQVTVSS
B6: Bm31G12 (VHH)
VHH: QVQLVESGGGLVQPGGSLRLSCAAAGFTVDDYVMSWVRQVPGKGREWVSSIHSYSSDTYYADSVKGRFTISTDNAKNTLYLQMNSLKPEDTAVYYCAADKDPLTIATMTRYEYDYWGQGTQVTVSS
B7: Bm31A09 (VHH)
VHH: QVQLVQSGGGLVQAGGSLRLSCAASGSTGSIYVMGWFRQAPGKQRELVASITRGEGSANYADSVKGRFTISRDNAKNTLYLQMNSLKPEDTAVYYCHADTGLGDYSDYAPHGYKYDYWGQGTQVTVSS
B8: Bm31D02 (VHH)
VHH: B7 VHH with Q6E
B9: Bm31A04 (VHH)
VHH: QVQLVQSGGGLVQPGGSLRLSCAASESISNIYVMGWFRQAPGKQRELVAAITSSNNTNYADSVKGRFTISRDNAKNTVYLQMNSLKPEDTAVYYCNADWGLGGYSDYGEYDYWGQGTQVTVSS
B10: Bm31A08 (VHH)
VHH: QVQLVESGGGLAQPGGSLTLSCAASGVVWSKYVMSWVRQVPEKGFEWVSGIKSDGSDTYYADSVKGRFTVSGDLAKKTVYLQLNSLKPEDTALYYCVLEYGTSWPPRVEEYDYWGQGTQVTVSS
B11: Bm31B04 (VHH)
VHH: QVQLVESGGGLVQPGGSLRLSCAASGSSFSIYGMSWYRQAPGNQRELVALINVGDWTTYADSVKGRFTISRDSAKNTVYLQMNSLKPEDTAVYYCKADLSVSGSSFIRTYWGQGTQVTVSS
B12: Bm32B07 (VHH)
VHH: QVQLVESGGGLVQTGGSLRLSCATSGRISSIYAMPWFRQAPGKEREFVAAISWHTDLAYYADSVKGRFTISKDNAKNTVYLQMNSLKPEDTAVYYCNIPSKEEYDRNYYYPTGGSWGQGTQVTVSS
B13: Bm32A03 (VHH)
VHH: B12 VHH with G10A, A23V, R27S, D56N, N84D, V93T, I98V, N107T, Y108S
B14: Bm32D01 (VHH)
VHH: B12 VHH with A58T, G66D, N77A, S85N, K87Q, I98V, E103Q, N107T, Y108S
B15: Bm29H04 (VHH)
VHH: QVQLVESGGGLVQPGGSLRLSCTASGVSLDDFAIGWFRQAPGKEREGVSCSSSRDRSEYYRDSVKGRFTISRDSQKNTVDLQMNSLTIEDTAVYYCAADPQPYPCSVGSLDRYNSWGQGTLVTVSS
B16: Bm32A08 (VHH)
VHH: QVQLVESGGGLVQAGGSLRVSCAASGDWFIINSMAWFRQAPGKQREQVATISHGGIPRYADSVKGRFTISRDNSKGAVYLQMNNLKSDDTAMYVCAAGGLDYGFPDPTPEEFDYWGRGTQVTVSS
B17: Bm32F03 (VHH)
VHH: B16 VHH with N73D, G76D
B18: Bm29E06 (VHH)
VHH: QVQLVESGGGLVQPGGSLRLSCTASGVSLYDFAVGWFRQAPGKEREGVSCSSSRDRSEYYRDSVKGRFDIVRDNLKNIIYLQMDNLTIEDTAVYFCAADSQPYPCSLGSLERYDSWGQGTQVTVSS
B19: Bm29F05 (VHH)
VHH: B18 VHH with F37W, S51T, D69T, I78T, N85S, T120I
B20: Bm29B04 (VHH)
VHH: QVQLVESGGGLVQAGGSLRLSCAASGFTFDDYVIGWFRQAPGKEREAVACISNGDGVANVPNSMKGRFTISSDSAKNTVHLRADSLKADDTGVYYCAAVKERLCVHEGMEYWGKGTQVTVSS
B21: Bm29B05 (VHH)
VHH: QVQLVESGGGLVQAGGSLRLSCAASGFTFDDYVIGWFRQAPGKEREAVACISNGDGVTNYPNSMRGRFTISSDSAKNTVYLQTDSLKPDDTGVYYCATAKERLCVQGGMEYWGKGTLVTVSS
B22: Bm29D07 (VHH)
VHH: QVQLVESGGGLVQPGGSLRLSCTASSIIVSYYAIGWFRQAPGKGREGVSRITVPAGNLYYADSVKGRFSITRDDVKNTVYLQMNSFQVEDTATYYCAVSYGDSWVDPSYVDHWGQGIQVTVSS

What was measured:
[1] = molecular target: T1, S. aureus gamma-hemolysin component B (HlgB) (Staphylococcus aureus, UniProt P0A075 27-325); assay: BLI, biotinylated VHH on streptavidin sensor, HlgB in solution
T1 sequence: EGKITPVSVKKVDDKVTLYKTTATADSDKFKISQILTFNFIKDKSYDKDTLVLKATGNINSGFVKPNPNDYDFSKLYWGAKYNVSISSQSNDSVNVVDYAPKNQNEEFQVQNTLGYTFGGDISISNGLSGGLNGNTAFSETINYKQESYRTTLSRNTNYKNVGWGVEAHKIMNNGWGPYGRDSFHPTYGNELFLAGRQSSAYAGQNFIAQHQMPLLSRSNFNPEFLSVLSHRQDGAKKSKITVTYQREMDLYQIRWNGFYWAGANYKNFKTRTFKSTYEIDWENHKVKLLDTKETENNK

[2] = molecular target: T2, S. aureus gamma-hemolysin component A (HlgA) (Staphylococcus aureus, UniProt P0A071 30-309); assay: BLI, biotinylated VHH on streptavidin sensor, HlgA in solution
T2 sequence: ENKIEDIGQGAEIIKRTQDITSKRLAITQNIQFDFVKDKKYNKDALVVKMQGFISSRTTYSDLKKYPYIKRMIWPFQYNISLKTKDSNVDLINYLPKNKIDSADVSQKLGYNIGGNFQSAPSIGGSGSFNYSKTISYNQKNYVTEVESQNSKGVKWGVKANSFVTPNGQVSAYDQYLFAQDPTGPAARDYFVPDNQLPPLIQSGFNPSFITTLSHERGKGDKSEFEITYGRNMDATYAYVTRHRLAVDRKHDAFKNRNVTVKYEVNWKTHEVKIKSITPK

[3] = molecular target: T3, S. aureus gamma-hemolysin component C (HlgC) (Staphylococcus aureus, UniProt Q07227 30-315); assay: BLI, biotinylated VHH on streptavidin sensor, HlgC in solution
T3 sequence: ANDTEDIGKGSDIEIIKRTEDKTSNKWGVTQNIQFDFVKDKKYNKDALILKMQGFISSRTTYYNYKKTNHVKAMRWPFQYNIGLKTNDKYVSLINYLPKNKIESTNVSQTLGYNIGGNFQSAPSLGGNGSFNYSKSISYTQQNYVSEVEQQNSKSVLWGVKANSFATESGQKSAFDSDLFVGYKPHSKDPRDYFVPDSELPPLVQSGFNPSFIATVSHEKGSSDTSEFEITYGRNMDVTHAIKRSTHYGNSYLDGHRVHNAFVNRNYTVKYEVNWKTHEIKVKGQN

Binder	Kd [1]	Kd [2]	other results
B1	10 pM		
B2		25 pM	
B3		50 pM	
B4		15 pM	
B5		90 pM	
B6		25 pM	
B7		50 pM	
B8		70 pM	
B9		60 pM	
B10		≤ 10 pM	
B11		≤ 10 pM	
B12			Kd [3]: 45 pM
B13			Kd [3]: 25 pM
B14			Kd [3]: 30 pM
B15	60 pM		
B16			Kd [3]: 45 pM
B17			Kd [3]: 850 pM
B18	30 pM		
B19	20 pM		
B20	≤ 10 pM		
B21	≤ 10 pM		
B22	≤ 10 pM		
